According to patent US20200010570A1 (SICHUAN KELUN BIOTECH BIOPHARMACEUTICAL, published 2020):

What was measured:
[1] = biological target: T1, PDL-1 on the cell surface (293T cells expressing PDL-1) (human, UniProt Q9NZQ7 19-290); assay: FACS, cells expressing PDL-1, method of Example 8
[2] = biological target: T2, recombinant protein PDL-1ECD-mFc (human, UniProt Q9NZQ7 19-238); assay: competitive ELISA, method 'described in Example 13'; column 'Affinity by competitive ELISA (nM)'; competitor not given
T2 construct: also called PDL-1-mFc; human PDL-1 (coated antigen); not shown: a TEV site before it is implied by the TEV digestion of
T2 sequence (Q9NZQ7 19-238): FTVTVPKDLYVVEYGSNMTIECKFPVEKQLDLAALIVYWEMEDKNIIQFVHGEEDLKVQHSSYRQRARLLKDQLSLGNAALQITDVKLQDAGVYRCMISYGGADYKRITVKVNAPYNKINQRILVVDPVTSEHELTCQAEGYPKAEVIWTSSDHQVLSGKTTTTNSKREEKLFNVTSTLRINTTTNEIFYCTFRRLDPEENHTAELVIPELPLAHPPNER

[3] = biological target: T2, recombinant protein PDL-1ECD-mFc; assay: indirect ELISA, method of Example 9; column 'Affinity by ELISA (nM)'
[4] = biological target: T1, PDL-1 on the cell surface (293T cells …); assay: FACS, cells expressing PDL-1, method of Example 8; column 'Cell affinity by FACS'
[5] = biological target: T3, PDL-1 antigen (PDL-1-mFc digested with TEV protease) (human, UniProt Q9NZQ7 19-238); assay: Fortebio, PDL-1 on sensor, antibody then PD-1 10 µg/ml; competitor PD-1
T3 construct: the whole entry is named
T3 sequence (Q9NZQ7 19-238 limits assumed): as the sequence (Q9NZQ7 19-238) above

T1 sequence (Q9NZQ7 19-290 limits assumed): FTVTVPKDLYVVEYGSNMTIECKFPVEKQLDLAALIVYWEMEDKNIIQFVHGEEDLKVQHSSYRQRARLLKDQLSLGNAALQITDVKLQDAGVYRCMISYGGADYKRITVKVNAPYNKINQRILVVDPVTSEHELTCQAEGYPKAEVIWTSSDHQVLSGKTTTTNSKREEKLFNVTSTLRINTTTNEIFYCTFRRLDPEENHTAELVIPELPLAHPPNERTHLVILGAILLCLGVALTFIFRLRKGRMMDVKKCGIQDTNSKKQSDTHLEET

| positive % [1] [%] | EC50 [2] [nM] | EC50 [3] [nM] | EC50 [4] [nM] | EC50 [5] [nM] | Binder |
| --- | --- | --- | --- | --- | --- |
| 60.3 | 0.838 | 0.029 | 1.48 | – | monoclonal antibody 5F10 (antibody, V domains shown, Murine antibody from a hybridoma) VH: EVQLQQSGAELVKPGASVKLSCTASGFDIKDTYIHWVKQRPEQGLEWIGRIDPADGNTRYDPKFQDKTTITTDTSSNTAHLQLSSLTSEDTAVYYCARGLGAWFASWGQGTLVTVSA VL: DIQMTQTTSSLSASLGDRVTISCRASQDITNSLNWYQQKPDGTVKLLIHYTSRLHSGVPSRFSGSGSGTDYSLTISNLEQEDIATYFCQQGHTLPPTFGGGTKLEI |
| 100 | 0.785 | 0.031 | 2.3 | 0.817 | monoclonal antibody 5C10 (antibody, V domains shown, Murine antibody purified from hybridoma supernatant; also called antibody of hybridoma cell strain LT005) VH: QVQLKESGPGLVAPSQNLSITCTVSGFSLSNYDISWIRQPPGKGLEWLGVIWTGGATNYNSAFMSRLSISRDNSKSQVFLKMNSLQTDDTAIYYCVRDSNYRYDEPFTYWGQGTLVTVSA VL: DILLTQSPAILSVSPGERVSLSCRASQSIGTNIHWFQQRTNGSPRLLIKYASESISGIPSRFSGSGSGTDFTLSINSVESEDIADYYCQQSNSWPYTFGGGTKLEI |
| 80.2 | 0.767 | 0.029 | 2.93 | – | monoclonal antibody 9F6 (antibody, V domains shown, Murine antibody from a hybridoma) VH: EVQLQQSGAELVKPGASVKLSCTASGFNIKDTYMYWVKQRPEQGLEWIGRIDPANGNTKYDPKFQGKATITADTSANTAYLQLSSLTSEDTAVYYCSRGPPGGIGEYIYAMDYWGQGTSVTVSS VL: QIVLTQSPAIMSASLGERVTMTCTASSSVSSSYLHWYQQKPGSSPKLWIYSTSNLASGVPARFSGSGSGTSYSLTISSMEAEDAATYYCHQYHRSPPTFGGGTKLEI |
